{
  "source": "paper PMC12392933",
  "about": "“The SCARECROW‐LIKE transcription factor from Populus davidiana × P. bolleana simultaneously improved drought tolerance and plant growth through acetylation‐dependent mechanisms”",
  "key": {"PdbSCL1 [1]": {"molecular_target": "T1, PdbSCL1 (Populus davidiana x P. bolleana …, UniProt A0AAJ6V7V0 1-473)", "T1 sequence": "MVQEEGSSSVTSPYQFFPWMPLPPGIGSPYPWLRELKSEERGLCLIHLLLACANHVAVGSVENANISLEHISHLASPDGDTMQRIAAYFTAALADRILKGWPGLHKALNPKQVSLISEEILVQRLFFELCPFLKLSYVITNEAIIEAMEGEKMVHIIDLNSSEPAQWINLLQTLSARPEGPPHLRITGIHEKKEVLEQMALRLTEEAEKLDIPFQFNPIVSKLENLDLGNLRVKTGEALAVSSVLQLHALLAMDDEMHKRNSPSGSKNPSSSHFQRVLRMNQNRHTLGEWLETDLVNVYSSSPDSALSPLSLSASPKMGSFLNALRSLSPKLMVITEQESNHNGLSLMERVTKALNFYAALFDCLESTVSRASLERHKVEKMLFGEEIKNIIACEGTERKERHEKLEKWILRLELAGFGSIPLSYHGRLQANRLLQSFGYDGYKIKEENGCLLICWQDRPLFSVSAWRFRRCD", "assay": "competition; EMSA, unlabelled mutant competitor; Chemiluminescent EMSA kit (Beyotime), PAGE; buffer, salt, pH and temperature not stated", "settings": "protein: recombinant; tags: MBP (pMALc5X); label: unlabelled; blunt"}, "PdbSCL1 [2]": {"molecular_target": "T1, PdbSCL1", "assay": "EMSA; Chemiluminescent EMSA kit (Beyotime), PAGE; buffer, salt, pH and temperature not stated", "settings": "protein: recombinant; tags: MBP (pMALc5X); label: 3' biotin; blunt"}},
  "data": [
    {"binder": "NFY mutant competitor (CCAAT to TTTTT) (dsDNA) DNA 1: TTTTTTTTTTTTTTTC DNA 2: GAAAAAAAAAAAAAAA", "values": [
      {"measurement": "binding result", "setting": "PdbSCL1 [1]", "value": "no binding"}
    ]},
    {"binder": "NFY probe (3x CCAAT) (dsDNA) DNA 1: CCAATCCAATCCAATC DNA 2: GATTGGATTGGATTGG", "values": [
      {"measurement": "binding result", "setting": "PdbSCL1 [2]", "value": "binds"}
    ]},
    {"binder": "PCF probe (3x TGGGCC) (dsDNA) DNA 1: TGGGCCTGGGCCTGGGCC DNA 2: GGCCCAGGCCCAGGCCCA", "values": [
      {"measurement": "binding result", "setting": "PdbSCL1 [2]", "value": "binds"}
    ]},
    {"binder": "ABRE probe (3x CACGTG) (dsDNA) DNA 1: CACGTGCACGTGCACGTG DNA 2: CACGTGCACGTGCACGTG", "values": [
      {"measurement": "binding result", "setting": "PdbSCL1 [2]", "value": "binds"}
    ]}
  ]
}
